Assay results published in publication PMC10901488 (Chemical Science, 2024).

Experiments:
Solubilization test = type: physicochemical; details: model peptides before tagging, or product after reaction with Mal-(EK)3
[1] = due to its hydrophobicity; cited from earlier work

| Substance | solubility (in words) (Solubilization test) | solubility [1] |
| --- | --- | --- |
| 1: C-terminal segment of IL-2 (residue 105–133) (CEYADETATIVEFLNRWITFCQSIISTLT; UniProt P60568 125-153, looked up, fragment) [compound 1] | poor solubility | – |
| insulin A chain: insulin A chain | – | poor solubility |
